Positions count from the first letter of the chain named.
B1: Gal4 DNA-binding domain-fused cBRC1-HCR-BRC2 (canine BRCA2 993–1248 aa) [canine (Canis lupus familiaris)] / VP16-fused canine RAD51 [canine] (parent complex)
chain 1: PISNHSFENGFKTASNKEIKLSENNIRKSKMLFKDIEEHYPTNLACLEIVNTSSLESQKKPSKSHALDPQSINIISGFVQNSTYVSDSESGHTAPPTLSLKQDFDSNRNLTPSQKAEITELSTILEESGSQFEFTQFRKPSHIIQKNPFEMPENQLTILNSTSKEWKDDDLHLTTNAPSISQVDSKKSEGIIGGKQKFACLSRTSCNRSASGYSTDKNEVEFRGFYSARGTKLNVGSEALQKAKKLFSDLENINEE
chain 2: MAMQMQLEANADTSVEEESFGPQPISRLEQCGINANDVKKLEEAGFHTVEAVAYAPKKELISIKGISEAKADKILTEAAKLVPMGFTTATEFHQRRSEIIQITTGSKELDKLLQGGIETGSITEMFGEFRTGKTQICHTLAVTCQLPIDRGGGEGKAMYIDTEGTFRPERLLAVAERYGLSGSDVLDNVAYARGFNTDHQTQLLYQASAMMVESRYALLIVDSATALYRTDYSGRGELSARQMHLARFLRMLLRLADEFGVAVVITNQVVAQVDGAAMFAADPKKPIGGNIIAHASTTRLYLRKGRGETRICKIYDSPCLPEAEAMFAINADGVGDAKD
B2: FLAG-HA-NLS-fused cBRC1-HCR-BRC2 (canine BRCA2 993–1248 aa) [canine (Canis lupus familiaris)] / endogenous RAD51 (HeLa cells) [human (endogenous in HeLa)] (parent complex)
chain 1: B1 chain 1
chain 2: B1 chain 2 with S62N, T76A, G194A

Variants of: B1
Experiment: mammalian two-hybrid assay; n = 4; parent: 3.1; read off a plot

Row | response [Firefly/Renilla] | Variant
1 | ~3.3 | chain 1 PISNHSFENGFKTASNKEIKLSENNIRKSKMLFKDIEEHYPTNLACLEIVNTSSLESQKKPSKSHALDPQSINIISGFVQNSTYVSDSESGHTAPPTLSLKQDFDSNRNLTPSQKAEMTELSTILEESGSQFEFTQFRKPSHIIQKNPFEMPENQLTILNSTSKEWKDDDLHLTTNAPSISQVDSKKSEGIIGGKQKFACLSRTSCNRSASGYSTDKNEVEFRGFYSARGTKLNVGSEALQKAKKLFSDLENINEE [chain 1 I118M]
2 | ~2.6 | chain 1 PISNHSFENGFKTASNKEIKLSENNIRKSKMLFKDIEEHYPTNLACLEIVNTSSLESQKKPSKSHALDPQSINIISGFVQNSTYVSDSESGHTAPPTLSLKQDFDSNRNLTPSQKAEITELPTILEESGSQFEFTQFRKPSHIIQKNPFEMPENQLTILNSTSKEWKDDDLHLTTNAPSISQVDSKKSEGIIGGKQKFACLSRTSCNRSASGYSTDKNEVEFRGFYSARGTKLNVGSEALQKAKKLFSDLENINEE [chain 1 S122P]
3 | ~2 | chain 1 PISNHSFENGFKTASNKEIKLSENNIRKSKMLFKDIEEHYPTNLACLEIVNTSSLESQKKPSKSHALDPQSINIISGFVQNSTYVSDSESGHTAPPTLSLKQDFDSNRNLTPSQKAEITELSPILEESGSQFEFTQFRKPSHIIQKNPFEMPENQLTILNSTSKEWKDDDLHLTTNAPSISQVDSKKSEGIIGGKQKFACLSRTSCNRSASGYSTDKNEVEFRGFYSARGTKLNVGSEALQKAKKLFSDLENINEE [chain 1 T123P]

Variants of: B2
Experiment: co-immunoprecipitation (anti-FLAG IP, Western blot quantification); lysates from HeLa cells stably expressing the FLAG-HA-NLS-fused peptide; parent: 1

Row | ratio to parent | Variant
4 | 0.52 | chain 1 PISNHSFENGFKTASNKEIKLSENNIRKSKMLFKDIEEHYPTNLACLEIVNTSSLESQKKPSKSHALDPQSINIISGFVQNSTYVSDSESGHTAPPTLSLKQDFDSNRNLTPSQKAEITELPTILEESGSQFEFTQFRKPSHIIQKNPFEMPENQLTILNSTSKEWKDDDLHLTTNAPSISQVDSKKSEGIIGGKQKFACLSRTSCNRSASGYSTDKNEVEFRGFYSARGTKLNVGSEALQKAKKLFSDLENINEE [chain 1 S122P]
5 | 0.92 | chain 1 PISNHSFENGFKTASNKEIKLSENNIRKSKMLFKDIEEHYPTNLACLEIVNTSSLESQKKPSKSHALDPQSINIISGFVQNSTYVSDSESGHTAPPTLSLKQDFDSNRNLTPSQKAEMTELSTILEESGSQFEFTQFRKPSHIIQKNPFEMPENQLTILNSTSKEWKDDDLHLTTNAPSISQVDSKKSEGIIGGKQKFACLSRTSCNRSASGYSTDKNEVEFRGFYSARGTKLNVGSEALQKAKKLFSDLENINEE [chain 1 I118M]
6 | 0.57 | chain 1 PISNHSFENGFKTASNKEIKLSENNIRKSKMLFKDIEEHYPTNLACLEIVNTSSLESQKKPSKSHALDPQSINIISGFVQNSTYVSDSESGHTAPPTLSLKQDFDSNRNLTPSQKAEITELSPILEESGSQFEFTQFRKPSHIIQKNPFEMPENQLTILNSTSKEWKDDDLHLTTNAPSISQVDSKKSEGIIGGKQKFACLSRTSCNRSASGYSTDKNEVEFRGFYSARGTKLNVGSEALQKAKKLFSDLENINEE [chain 1 T123P]

Reference: PMC9959916, “A Highly Conserved Region in BRCA2 Suppresses the RAD51-Interaction Activity of BRC Repeats” (Veterinary Sciences, 2023)
